Reference: PMC9131899 (Blood Advances, 2022)

Target: T1, high molecular weight kininogen (HK), purified protein used in ELISA (human, UniProt P01042 19-644)
T1 sequence (looked up): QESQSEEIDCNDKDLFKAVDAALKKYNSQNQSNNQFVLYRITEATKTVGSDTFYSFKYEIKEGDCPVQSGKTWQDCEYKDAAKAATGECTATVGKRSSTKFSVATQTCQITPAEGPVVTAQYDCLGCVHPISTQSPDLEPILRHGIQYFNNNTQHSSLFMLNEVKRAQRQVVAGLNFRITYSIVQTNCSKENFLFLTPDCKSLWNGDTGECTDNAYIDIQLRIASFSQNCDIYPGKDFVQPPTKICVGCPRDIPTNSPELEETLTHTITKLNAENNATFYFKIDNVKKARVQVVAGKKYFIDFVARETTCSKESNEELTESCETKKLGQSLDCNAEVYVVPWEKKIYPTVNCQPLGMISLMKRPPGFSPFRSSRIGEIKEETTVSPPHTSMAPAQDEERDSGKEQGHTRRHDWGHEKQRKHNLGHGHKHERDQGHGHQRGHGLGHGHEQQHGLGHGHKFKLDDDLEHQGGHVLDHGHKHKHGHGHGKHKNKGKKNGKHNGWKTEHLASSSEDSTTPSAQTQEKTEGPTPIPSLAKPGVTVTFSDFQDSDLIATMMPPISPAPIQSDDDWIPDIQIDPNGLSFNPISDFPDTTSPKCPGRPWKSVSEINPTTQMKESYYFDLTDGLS
Experiment: ELISA

B1: prekallikrein (PK), purified protein used in ELISA (natural protein)
chain: not shown
Does B1 bind?
Result: binds
